Key:
Experiment in all cases: potentiometry
[1] = target: Cys30 (UniProt position 772, STTGDCH----); conditions: 298 K; 0.1 M NaClO4; none (4 mM HClO4, 0.1 M NaClO4); Zn(II)-bound mononuclear 1:1 complex
[2] = target: Cterm31 (UniProt position 773, TTGDCH-----); conditions: 298 K; 0.1 M NaClO4; none (4 mM HClO4, 0.1 M NaClO4); free peptide, no metal, thiols reduced (argon atmosphere)
[3] = target: Asp29 (UniProt position 771, ASTTGDCH---); conditions: 298 K; 0.1 M NaClO4; none (4 mM HClO4, 0.1 M NaClO4); free peptide, no metal, thiols reduced (argon atmosphere)
[4] = target: His31 (UniProt position 773, TTGDCH-----); conditions: 298 K, 0.1 M NaClO4, none (4 mM HClO4, 0.1 M NaClO4)
[5] = target: Glu10 (position 10, …); conditions: 298 K, 0.1 M NaClO4, none (4 mM HClO4, 0.1 M NaClO4)
[6] = target: His31 (position 31, TTGDCH-----); conditions: 298 K, 0.1 M NaClO4, none (4 mM HClO4, 0.1 M NaClO4)
[7] = target: Cys30 (position 30, STTGDCH----); conditions: 298 K; 0.1 M NaClO4; none (4 mM HClO4, 0.1 M NaClO4); Zn(II)-bound mononuclear 1:1 complex
[8] = target: Cterm31 (position 31, TTGDCH-----); conditions: 298 K; 0.1 M NaClO4; none (4 mM HClO4, 0.1 M NaClO4); free peptide, no metal, thiols reduced (argon atmosphere)
[9] = Fe(II)-bound mononuclear 1:1 complex, anaerobic
[10] = Mn(II)-bound mononuclear 1:1 complex
[11] = Zn(II)-bound mononuclear 1:1 complex
[12] = free peptide, no metal, thiols reduced (argon atmosphere)

| Protein | pKa [1] | pKa [2] | pKa [3] | pKa [4, 9] | pKa [4, 10] | pKa [4, 11] | pKa [4, 12] | pKa [5, 9] | pKa [5, 10] | pKa [5, 12] | pKa [6, 9] | pKa [6, 10] | pKa [6, 11] | pKa [6, 12] | pKa [7] | pKa [8] |
| --- | --- | --- | --- | --- | --- | --- | --- | --- | --- | --- | --- | --- | --- | --- | --- | --- |
| CCAASTTGDCH [FeoB C-terminal peptide P1 (Ac-CCAASTTGDCH, FeoB 763-773) (Escherichia coli K12)] | 7.27 | 3.37 | 4.19 | 4.68 | 6.46 | 5.91 | 6.96 | – | – | – | – | – | – | – | – | – |
| RRARSRVDIELLATRKSVSSCCAASTTGDCH [FeoB C-terminal peptide P2 (Ac-RRARSRVDIELLATRKSVSSCCAASTTGDCH, FeoB 743-773) (Escherichia coli K12)] | – | – | – | – | – | – | – | 4.13 | 3.64 | 4.38 | 4.90 | 5.20 | 5.74 | 6.73 | 7.75 | 2.15 |

Source: article PMC10647171
